Source: patent US9605038B2, “Fusion peptide comprising dhFas-1 domain and MMP substrate and use thereof for preventing and treating rheumatoid arthritis” (Kyungpook National University Industry-Academic Cooperation …, priority 2010, dated 2017)
“Also recorded” adds a separate entry of the source.

T1: MMP2 (Homo sapiens, UniProt P08253)
T1 sequence (P08253 110-660): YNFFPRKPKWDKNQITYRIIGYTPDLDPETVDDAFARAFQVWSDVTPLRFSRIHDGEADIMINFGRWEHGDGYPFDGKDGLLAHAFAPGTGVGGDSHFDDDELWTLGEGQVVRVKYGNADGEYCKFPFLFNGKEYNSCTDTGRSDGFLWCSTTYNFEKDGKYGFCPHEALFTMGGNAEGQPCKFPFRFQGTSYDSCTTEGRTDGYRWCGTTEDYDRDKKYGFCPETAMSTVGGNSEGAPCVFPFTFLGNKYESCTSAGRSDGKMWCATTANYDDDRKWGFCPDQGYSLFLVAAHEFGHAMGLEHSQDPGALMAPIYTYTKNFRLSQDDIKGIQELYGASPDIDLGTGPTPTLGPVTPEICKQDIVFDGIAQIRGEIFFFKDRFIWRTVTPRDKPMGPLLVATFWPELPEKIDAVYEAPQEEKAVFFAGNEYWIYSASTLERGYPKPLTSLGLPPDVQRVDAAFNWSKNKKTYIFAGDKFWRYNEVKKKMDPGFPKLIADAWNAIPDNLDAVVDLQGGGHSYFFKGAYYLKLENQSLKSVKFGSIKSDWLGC

T2: MMP1 (Homo sapiens, UniProt P03956)
T2 sequence (P03956 100-469): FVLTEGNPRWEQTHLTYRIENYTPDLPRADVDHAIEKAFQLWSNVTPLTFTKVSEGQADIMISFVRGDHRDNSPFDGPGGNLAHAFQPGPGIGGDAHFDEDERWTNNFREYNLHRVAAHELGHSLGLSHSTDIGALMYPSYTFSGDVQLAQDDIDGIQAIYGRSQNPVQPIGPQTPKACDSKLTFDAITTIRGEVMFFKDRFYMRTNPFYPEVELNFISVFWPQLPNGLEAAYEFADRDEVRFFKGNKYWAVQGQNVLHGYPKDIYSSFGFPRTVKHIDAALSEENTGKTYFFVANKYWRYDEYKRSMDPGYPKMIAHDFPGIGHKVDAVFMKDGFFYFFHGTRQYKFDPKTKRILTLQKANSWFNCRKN


Legend:
[1] = target: T1, MMP2; assay: Enzymatic digestion test, MMP2; type: biochemical; conditions: 3 ug peptide, MMP2 100, 200, 800 ng, 37° C. 4 hours
Method: (§1) 3 ug of synthesized mdhFas-1-MMPsubstrate structure modified protein, together with MMP1 (5 ng, 10 ng and 50 ng), MMP2 (100 ng, 200 ng and 800 ng), MMP3 (10 ng, 50 ng and 100 ng), cathepsin D (5 ng, 10 ng and 50 ng), cathepsin L (100 ng, 200 ng and 800 ng), and cathepsin K (10 ng, 50 ng and 100 ng), was mixed with enzyme buffer (150 mM NaCl, 5 mM. CaCl2, 20 mM Tris-HCl pH7.5), and reacted at 37° C. for 4 hours. The resultant product was subjected to electrophoresis through 15% polyacrylamide gel, transferred to a Nitrocellulose Membrane (Schleicher & Schuell), blocked at room temperature for 1 hour with TBST solution containing 3% BSA (20 mmole/L Tris-HCl, 137 mmole//l NaCl, 0.1% Tween-20), washed TBST solution three times (each for 10 minutes), and reacted with primary antibody (anti-Histidine or anti-Bigh3) for 1 hour. The resultant product was washed with TBST solution three times (each for 10 minutes), reacted with a secondary antibody conjugated to horseradish peroxidase (HRP) for 1 hour, washed TBST solution three times (each for 10 minutes), and visualized by ECL (Amersham Biosciences, UK) so as to detect the change in the amount of mdhFas-1-MMPsubstrate-RGD structural peptide.

[2] = tested on: NIH3T3; assay: βig-h3-mediated cell migration test (transwell), NIH3T3; type: cell-based, mouse; conditions: 7 hours
Method: In the lower compartment of a transwell filter having an 8 um hole size allowing cells to be migrated, βig-h3 was cultured at 4° C. for 12 to 14 hours and coated. In DMEM+0.5% BSA culture medium, NIH3T3 was introduced, and administered with MFK23, MFK24 or MFK25 at concentrations, followed by mixing. The resultant mixture was cultured at 37° C. for 30 minutes, inoculated into the upper chamber of the coated well, and cultured for 7 hours at 37° C. Then, the cells migrated to the lower compartment of the filter were fixed by paraformaldehyde, and strained by a crystal violet. The cells […] remaining in the upper chamber were wiped out and the number of cells migrated to the lower compartment was microscopically counted.

[3] = target: cathepsin L (Homo sapiens, UniProt P07711); assay: Enzymatic digestion test, cathepsin L; type: biochemical; conditions: 3 ug peptide, cathepsin L 100, 200, 800 ng, 37° C. 4 hours
Chain of cathepsin L (P07711 114-333, species assumed): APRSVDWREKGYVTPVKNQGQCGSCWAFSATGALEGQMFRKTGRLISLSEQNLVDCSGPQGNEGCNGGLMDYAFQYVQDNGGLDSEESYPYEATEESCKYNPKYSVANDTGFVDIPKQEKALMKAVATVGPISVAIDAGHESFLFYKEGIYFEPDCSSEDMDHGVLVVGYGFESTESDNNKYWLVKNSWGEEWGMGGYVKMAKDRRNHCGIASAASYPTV
Method: as §1

[4] = tested on: foot tissue of CIA mouse (Synovial membrane, cartilage, bones; CD31, ICAM-1); assay: Histologic and immunohistochemistry test on foot tissue of CIA mouse; type: in vivo; conditions: CIA mouse foot tissue, 50th day, FIGS. 18 and 20
Method: In order to determine the action mechanism of an arthritis therapeutic effect in a CIA model, on the 50th day following the second injection of the bovine type 2 collagen (after 4 weeks from the onset (the 23rd day) of arthritis following the second injection of the bovine type 2 collagen), foot tissues of treatment groups were separated and subjected to histologic analysis. Then, in the tissues, a change in the expression of inflammatory mediators was examined.
A tissue sample was prepared by the following process. Skin on the foot tissue was removed. Then, the tissue was fixed in 10% formalin solution for 2 days, and demineralized in 10% EDTA solution. The demineralized tissue was subjected to a dehydrating process and a clearing process, paraffin-embedded, and was made into a fragment with a thickness of 3 um by a microtome. The tissue fragment was deparaffinized and re-dehydrated by 100% xylene and ethanol, and then non-specific peroxidase within the tissue was blocked by a solution of 0.3% hydrogen peroxide dissolved in 100% methanol.
In order to carry out an immunohistochemistry test, binding of non-specific protein was blocked by 5% BSA. Then, the tissue was cultured, together with each primary antibody (as endothelial cell markers, an antibody to CD31, and an antibody to ICAM-1 (intercellular adhesion molecule-1)), at 4° C. for 12 to 14 hours, and washed with washing buffer (0.1% BSA, 0.2% gelatin, 0.05% saponin). It was cultured together with a secondary antibody labeled with biotin at room temperature for 30 minutes, was washed, reacted with Vectastatin ABC kit (Vector Laboratories, U.S.), and was mounted with Eukitt mounting media (Fluka, Germany) for observation.

[5] = target: T2, MMP1; assay: Enzymatic digestion test, MMP1; type: biochemical; conditions: 3 ug peptide, MMP1 5, 10, 50 ng, 37° C. 4 hours
Method: as §1

Molecule | cleavage through treatment with MMP-2 [1] | βig-h3-mediated cell migration [2] | cleavage through treatment with cathepsin L [3] | deformation of cartilage and bones (HE stain) [4] | proliferation of a Synovial membrane cell (HE stain) [4] | cleavage through treatment with MMP-1 [5]
MFK23: fusion peptide having sequential links of mdhFas-1, MMP2 substrate GPLGVRG (SEQ ID NO: 5), and QERGDSLA (SEQ ID NO: 10) (protein, MFK23) QAMPPEELNKLLANAKELTNILKYHIGDEILVSGGIGALVRLKSLQGDKLEVSSKNNVVSVNKEPVAETDIMEFGPLGVRGVDGQERGDSLAGLE | concentration-dependently cleaved | inhibited the cell migration; also recorded: concentration-dependently inhibited | not cleaved | reduced the deformation of cartilage and bones | inhibited the proliferation of a Synovial membrane cell | not cleaved
MFK24: fusion peptide having sequential links of mdhFas-1, MMP1 substrate GPQGIAG (SEQ ID NO: 6), and QERGDSLA (SEQ ID NO: 10) (protein, MFK24) QAMPPEELNKLLANAKELTNILKYHIGDEILVSGGIGALVRLKSLQGDKLEVSSKNNVVSVNKEPVAETDIMEFGPQGIAGVDGQERGDSLAGLE | not cleaved | inhibited the cell migration; also recorded: concentration-dependently inhibited | not cleaved | reduced the deformation of cartilage and bones | inhibited the proliferation of a Synovial membrane cell | concentration-dependently cleaved
